Target: T1, DRAGON-Fc fusion protein (DRAGON without its GPI anchor fused to the Fc portion of human IgG) (mouse; human, UniProt Q7TQ33 49-415, limits assumed)
T1 construct: Purified from stably transfected HEK293 cells; also called soluble DRAGON; not shown: Fc portion of the human IgG (vector pIgplus, R&D Systems)
T1 sequence: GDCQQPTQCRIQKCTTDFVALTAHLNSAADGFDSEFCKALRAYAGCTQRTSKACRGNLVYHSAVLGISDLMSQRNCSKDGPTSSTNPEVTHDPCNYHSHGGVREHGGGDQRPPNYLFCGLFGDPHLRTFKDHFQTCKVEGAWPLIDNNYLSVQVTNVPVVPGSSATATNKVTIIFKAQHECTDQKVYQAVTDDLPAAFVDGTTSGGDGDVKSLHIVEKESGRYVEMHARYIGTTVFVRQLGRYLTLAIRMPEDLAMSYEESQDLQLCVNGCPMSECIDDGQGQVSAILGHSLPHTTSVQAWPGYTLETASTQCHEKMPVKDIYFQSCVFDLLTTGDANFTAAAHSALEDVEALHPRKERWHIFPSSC
Test: DRAGON-Fc with [125I]-BMP2 and increasing unlabeled BMP2, capture on protein A plates

Kd: 1.5 nM
B1: BMP-2 (ligand, human, UniProt P12643 283-396, looked up)
chain: QAKHKQRKRLKSSCKRHPLYVDFSDVGWNDWIVAPPGYHAFYCHGECPFPLADHLNSTNHAIVQTLVNSVNSKIPKACCVPTELSAISMLYLDENEKVVLKNYQDMVVEGCGCR
modifications: iodinated with 125I where used as tracer
